The supplement of paper PMC5998384

What was measured:
[1] = test system: HeLa Kyoto; experiment: solubility in G1/S (NP-40 vs SDS abundance) (log2 ratio); higher = more soluble; settings: cell cycle stage: G1/S
[2] = test system: HeLa Kyoto; experiment: melting temperature (median over replicates), in situ; higher = more thermally stable
[3] = test system: HeLa Kyoto; experiment: solubility change mitosis vs G1/S (difference of NP-40 vs SDS log2 ratios) (log2 ratio difference); higher = more soluble in mitosis
[4] = test system: HeLa Kyoto; experiment: thermal stability score vs G1/S (z-score of summed log2 fold changes over temperatures); higher = more thermally stable than in G1/S
[5] = cell cycle stage: early G1 (4.5 h after nocodazole release)
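For melting temperature (median over replicates), in situ in this document: HeLa Kyoto cells synchronized by double thymidine or nocodazole block, proteins quantified by TMT10plex mass spectrometry, three independent biological replicates.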
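For solubility change mitosis vs G1/S (difference of NP-40 vs SDS log2 ratios) in this document: synchronized HeLa Kyoto cells (double thymidine block for G1/S, nocodazole release for mitosis), protein amounts in NP-40 versus SDS lysates quantified by mass spectrometry, three biological replicates.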
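For solubility in G1/S (NP-40 vs SDS abundance) in this document: HeLa Kyoto cells arrested at G1/S by double thymidine block, proteins quantified by TMT10plex mass spectrometry in mild NP-40 versus SDS extracts, three biological replicates.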
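For thermal stability score vs G1/S (z-score of summed log2 fold changes over temperatures) in this document: synchronized HeLa Kyoto cells, proteins quantified by TMT10plex mass spectrometry, three biological replicates, mitosis taken 0.5 h after nocodazole release, G1/S directly after double thymidine block.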

Sequence | solubility in G1/S (log2) [1] | melting temperature ([2]; cell cycle stage: G1/S) [°C] | melting temperature ([2]; cell cycle stage: mitosis) [°C] | solubility change mitosis (log2) [3] | thermal stability score [4, 5] | thermal stability score ([4]; cell cycle stage: mitosis)
MDAPRQVVNFGPGPAKLPHSVLLEIQKELLDYKGVGISVLEMSHRSSDFAKIINNTENLVRELLAVPDNYKVIFLQGGGCGQFSAVPLNLIGLKAGRCADYVVTGAWSAKAAEEAKKFGTINIVHPKLGSYTKIPDPSTWNLNPDASYVYYCANETVHGVEFDFIPDVKGAVLVCDMSSNFLSKPVDVSKFGVIFAGAQKNVGSAGVTVVIVRDDLLGFALRECPSVLEYKVQAGNSSLYNTPPCFSIYVMGLVLEWIKNNGGAAAMEKLSSIKSQTIYEIIDNSQGFYVCPVEPQNRSKMNIPFRIGNAKGDDALEKRFLDKALELNMLSLKGHRSVGGIRASLYNAVTIEDVQKLAAFMKKFLEMHQL [PSAT1] | 0.15 | 55.6 | 55.6 | -0.136 | -0.482 | -0.769
MEHVTEGSWESLPVPLHPQVLGALRELGFPYMTPVQSATIPLFMRNKDVAAEAVTGSGKTLAFVIPILEILLRREEKLKKSQVGAIIITPTRELAIQIDEVLSHFTKHFPEFSQILWIGGRNPGEDVERFKQQGGNIIVATPGRLEDMFRRKAEGLDLASCVRSLDVLVLDEADRLLDMGFEASINTILEFLPKQRRTGLFSATQTQEVENLVRAGLRNPVRVSVKEKGVAASSAQKTPSRLENYYMVCKADEKFNQLVHFLRNHKQEKHLVFFSTCACVEYYGKALEVLVKGVKIMCIHGKMKYKRNKIFMEFRKLQSGILVCTDVMARGIDIPEVNWVLQYDPPSNASAFVHRCGRTARIGHGGSALVFLLPMEESYINFLAINQKCPLQEMKPQRNTADLLPKLKSMALADRAVFEKGMKAFVSYVQAYAKHECNLIFRLKDLDFASLARGFALLRMPKMPELRGKQFPDFVPVDVNTDTIPFKDKIREKQRQKLLEQQRREKTENEGRRKFIKNKAWSKQKAKKEKKKKMNEKRKREEGSDIEDEDMEELLNDTRLLKKLKKGKITEEEFEKGLLTTGKRTIKTVDLGISDLEDDC [DDX55] | -1.07 | 49.2 | 50.7 | 0.392 | 2.22 | 3.29
MAQQQMTSSQKALMLELKSLQEEPVEGFRITLVDESDLYNWEVAIFGPPNTLYEGGYFKAHIKFPIDYPYSPPTFRFLTKMWHPNIYENGDVCISILHPPVDDPQSGELPSERWNPTQNVRTILLSVISLLNEPNTFSPANVDASVMFRKWRDSKGKDKEYAEIIRKQVSATKAEAEKDGVKVPTTLAEYCIKTKVPSNDNSSDLLYDDLYDDDIDDEDEEEEDADCYDDDDSGNEES [UBE2R2] | 0.302 | 51.9 | 52.9 | 0.134 | -2.34 | -0.967
MASILDEYENSLSRSAVLQPGCPSVGIPHSGYVNAQLEKEVPIFTKQRIDFTPSERITSLVVSSNQLCMSLGKDTLLRIDLGKANEPNHVELGRKDDAKVHKMFLDHTGSHLLIALSSTEVLYVNRNGQKVRPLARWKGQLVESVGWNKALGTESSTGPILVGTAQGHIFEAELSASEGGLFGPAPDLYFRPLYVLNEEGGPAPVCSLEAERGPDGRSFVIATTRQRLFQFIGRAAEGAEAQGFSGLFAAYTDHPPPFREFPSNLGYSELAFYTPKLRSAPRAFAWMMGDGVLYGALDCGRPDSLLSEERVWEYPEGVGPGASPPLAIVLTQFHFLLLLADRVEAVCTLTGQVVLRDHFLEKFGPLKHMVKDSSTGQLWAYTERAVFRYHVQREARDVWRTYLDMNRFDLAKEYCRERPDCLDTVLAREADFCFRQRRYLESARCYALTQSYFEEIALKFLEARQEEALAEFLQRKLASLKPAERTQATLLTTWLTELYLSRLGALQGDPEALTLYRETKECFRTFLSSPRHKEWLFASRASIHELLASHGDTEHMVYFAVIMQDYERVVAYHCQHEAYEEALAVLARHRDPQLFYKFSPILIRHIPRQLVDAWIEMGSRLDARQLIPALVNYSQGGEVQQVSQAIRYMEFCVNVLGETEQAIHNYLLSLYARGRPDSLLAYLEQAGASPHRVHYDLKYALRLCAEHGHHRACVHVYKVLELYEEAVDLALQVDVDLAKQCADLPEEDEELRKKLWLKIARHVVQEEEDVQTAMACLASCPLLKIEDVLPFFPDFVTIDHFKEAICSSLKAYNHHIQELQREMEEATASAQRIRRDLQELRGRYGTVEPQDKCATCDFPLLNRPFYLFLCGHMFHADCLLQAVRPGLPAYKQARLEELQRKLGAAPPPAKGSARAKEAEGGAATAGPSREQLKADLDELVAAECVYCGELMIRSIDRPFIDPQRYEEEQLSWL [VPS18] | -0.115 | 50.1 | 49.5 | -0.0584 | 0.54 | 1.02
MDATALERDAVQFARLAVQRDHEGRYSEAVFYYKEAAQALIYAEMAGSSLENIQEKITEYLERVQALHSAVQSKSADPLKSKHQLDLERAHFLVTQAFDEDEKENVEDAIELYTEAVDLCLKTSYETADKVLQNKLKQLARQALDRAEALSEPLTKPVGKISSTSVKPKPPPVRAHFPLGANPFLERPQSFISPQSCDAQGQRYTAEEIEVLRTTSKINGIEYVPFMNVDLRERFAYPMPFCDRWGKLPLSPKQKTTFSKWVRPEDLTNNPTMIYTVSSFSIKQTIVSDCSFVASLAISAAYERRFNKKLITGIIYPQNKDGEPEYNPCGKYMVKLHLNGVPRKVIIDDQLPVDHKGELLCSYSNNKSELWVSLIEKAYMKVMGGYDFPGSNSNIDLHALTGWIPERIAMHSDSQTFSKDNSFRMLYQRFHKGDVLITASTGMMTEAEGEKWGLVPTHAYAVLDIREFKGLRFIQLKNPWSHLRWKGRYSENDVKNWTPELQKYLNFDPRTAQKIDNGIFWISWDDLCQYYDVIYLSWNPGLFKESTCIHSTWDAKQGPVKDAYSLANNPQYKLEVQCPQGGAAVWVLLSRHITDKDDFANNREFITMVVYKTDGKKVYYPADPPPYIDGIRINSPHYLTKIKLTTPGTHTFTLVVSQYEKQNTIHYTVRVYSACSFTFSKIPSPYTLSKRINGKWSGQSAGGCGNFQETHKNNPIYQFHIEKTGPLLIELRGPRQYSVGFEVVTVSTLGDPGPHGFLRKSSGDYRCGFCYLELENIPSGIFNIIPSTFLPKQEGPFFLDFNSIIPIKITQLQ [CAPN7] | 0.0756 | 50.4 | 49.7 | -0.0174 | -0.306 | -0.374
MLRSCAARLRTLGALCLPPVGRRLPGSEPRPELRSFSSEEVILKDCSVPNPSWNKDLRLLFDQFMKKCEDGSWKRLPSYKRTPTEWIQDFKTHFLDPKLMKEEQMSQAQLFTRSFDDGLGFEYVMFYNDIEKRMVCLFQGGPYLEGPPGFIHGGAIATMIDATVGMCAMMAGGIVMTANLNINYKRPIPLCSVVMINSQLDKVEGRKFFVSCNVQSVDEKTLYSEATSLFIKLNPAKSLT [THEM4] | 0.0285 | 54.7 | 56.2 | -0.0775 | 0.216 | -1.16
